We go through 14 substances from patent US8404647B2, “Peptidylarginine deiminase (PAD) inhibitors” (Chiralix B.V., priority 2008, dated 2013).

Ends that are not written are not given here.

Format in all cases: biochemical
The target of test [1] is T1, PAD2 (Homo sapiens, UniProt Q9Y2J8). The test can be described thus: Citrullination of synthetic peptides by recombinant human PAD2 (MALDI-TOF and ESI-Q-TOF mass spectrometry). The conditions noted are these: for PAD2 conversion: Arg: share of peptide still unconverted (Arg); for PAD2 conversion: 1 Cit: share of peptide with one citrulline; for PAD2 conversion: 2 Cit: share of peptide with two citrullines. Also noted: His6; made in house. On the procedure: (§1) Subsequently, the citrullinated proteins were isolated from the cell lysates by immunoaffinity purification using the RA3 single chain antibody fragment (scFv), which is specific for citrullinated epitopes {Raats et al., 2003}. After digestion of the purified proteins with trypsin, the amino acid sequence of the resulting peptides was determined by tandem mass spectrometry. Based upon the mass spectrometry data the peptides containing citrullinated residues were identified. In total 90 and 57 citrullinated peptides were identified in proteins derived from the COS-1 cells expressing PAD2 and PAD4, respectively, and 107 and 38 citrullinated peptides were obtained from HEK-293 cell material for PAD2 and PAD4, respectively. The frequency of amino acids at each of the positions between 5 residues N-terminal and 5 residues C-terminal from a citrullinated residue was derived from the combined sequences of these sites and is illustrated in Table 1. […] The efficiency by which these peptides were citrullinated by the human PAD2 and PAD4 enzymes was investigated by incubating them with the bacterially expressed, His6-tagged and IMAC purified, recombinant enzymes, followed by analysis of the products by both MALDI-TOF and ESI-Q-TOF mass spectrometry.
T1 sequence (Q9Y2J8 whole entry, the tested form may be a part): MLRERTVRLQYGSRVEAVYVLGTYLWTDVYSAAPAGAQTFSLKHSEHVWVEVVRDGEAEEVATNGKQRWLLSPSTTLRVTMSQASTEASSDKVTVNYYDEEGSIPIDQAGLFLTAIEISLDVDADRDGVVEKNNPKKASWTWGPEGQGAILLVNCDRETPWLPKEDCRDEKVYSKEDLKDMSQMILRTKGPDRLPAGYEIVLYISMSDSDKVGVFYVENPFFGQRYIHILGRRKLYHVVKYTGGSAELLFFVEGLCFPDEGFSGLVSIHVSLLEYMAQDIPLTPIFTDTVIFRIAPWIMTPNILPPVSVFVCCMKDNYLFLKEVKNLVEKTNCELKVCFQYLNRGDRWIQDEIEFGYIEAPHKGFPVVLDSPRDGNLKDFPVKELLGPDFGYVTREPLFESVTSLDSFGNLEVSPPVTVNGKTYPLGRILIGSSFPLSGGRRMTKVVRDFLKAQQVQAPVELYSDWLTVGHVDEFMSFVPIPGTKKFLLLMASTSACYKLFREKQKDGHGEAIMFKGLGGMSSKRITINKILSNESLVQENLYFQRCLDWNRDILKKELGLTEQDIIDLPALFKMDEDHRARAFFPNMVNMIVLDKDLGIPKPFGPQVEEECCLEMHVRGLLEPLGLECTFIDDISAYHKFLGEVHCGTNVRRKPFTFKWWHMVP

The target of test [2] is T2, PAD4 (Homo sapiens, UniProt Q9UM07). As to the kind of experiment: Citrullination of synthetic peptides by recombinant human PAD4 (MALDI-TOF and ESI-Q-TOF mass spectrometry). Also noted: His6; made in house. To be noted: for PAD4 conversion: Arg: share of peptide still unconverted (Arg); for PAD4 conversion: 1 Cit: share of peptide with one citrulline; for PAD4 conversion: 2 Cit: share of peptide with two citrullines. On the procedure: as §1
T2 sequence (Q9UM07 whole entry): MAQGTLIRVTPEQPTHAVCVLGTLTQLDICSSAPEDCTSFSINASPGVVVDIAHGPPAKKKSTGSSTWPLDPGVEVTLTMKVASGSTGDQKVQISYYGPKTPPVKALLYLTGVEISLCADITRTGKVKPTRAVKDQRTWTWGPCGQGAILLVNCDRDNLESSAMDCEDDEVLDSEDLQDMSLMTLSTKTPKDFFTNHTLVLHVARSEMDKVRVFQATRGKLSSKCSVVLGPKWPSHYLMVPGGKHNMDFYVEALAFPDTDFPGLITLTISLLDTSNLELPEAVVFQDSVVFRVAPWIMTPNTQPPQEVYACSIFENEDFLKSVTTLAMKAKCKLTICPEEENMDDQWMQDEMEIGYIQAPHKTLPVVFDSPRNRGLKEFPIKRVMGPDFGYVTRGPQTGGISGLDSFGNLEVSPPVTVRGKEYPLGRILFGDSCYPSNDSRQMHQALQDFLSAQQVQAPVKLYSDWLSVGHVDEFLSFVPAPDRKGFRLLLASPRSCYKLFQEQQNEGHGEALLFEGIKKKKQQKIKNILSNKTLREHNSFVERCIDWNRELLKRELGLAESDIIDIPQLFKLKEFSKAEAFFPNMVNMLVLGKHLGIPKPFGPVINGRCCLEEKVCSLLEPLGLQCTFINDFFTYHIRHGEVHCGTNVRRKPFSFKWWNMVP

The target in test [3] is T1, PAD2. The test can be described thus: Conversion (R to Cit) of substrate peptides by PAD2, mass spectrometry. To be noted: for Conversion by PAD2 (%): Table 10. On the procedure: In a similar fashion as for PAD4 we identified improved peptide substrates for PAD2. Again L1 was used as a lead compound. The set of 152 peptides from Table 3 was used and testing was performed as described before.
(§2) Conversion of arginine into citrulline in the substrate peptides by PAD2 or PAD4 using mass spectrometry was performed as follows. A candidate substrate peptide was incubated with a PAD as indicated for several hours at 37° C. The reaction was quenched by the addition with acetic acid. A sample was analysed on a Qtof mass spectrometer (Micromass, UK) and the mass spectrum was compared with that of the same peptide not treated with PAD. Normally, 2^+- and 3^+-ions are detected. The conversion (ΔM=0.98 Da) was calculated on the 2^+- and 3^+-ions individually, and subsequently averaged taking into account the relative peak height of the 2^+- and 3^+-signals (see FIG. 5).

Test [4] addresses T2, PAD4. The test can be described thus: Conversion (R to Cit) of substrate peptides by PAD4, mass spectrometry. The conditions noted are these: for Conversion by PAD4 (%): Table 10; for Conversion: Table 7, PAD4, test system with 3 times less enzyme.
Excerpt: From previous studies it was known that D-S-Q-F-A-F-R-G-A-S-A-S-D (designated here as L1: SEQ ID NO: 11) is a substrate for PAD2 and PAD 4. To obtain better substrates, and subsequently powerful inhibitors, we intended to identify structural elements that improve substrate properties. A set of 152 individual analog peptides was generated, each differing from L1 by one amino acid at one of the positions −4 to −1 or 1 to 4.
In Table 3 the conversion of each analog (R to Cit conversion) is depicted. Values of the analogs relate to the conversion of the analog compared to the conversion of L1 under standard conditions (100 means a conversion equal to L1, 50 means conversion of 50% of that of L1, 175 means conversion of 175% of that of L1). Numbers above 100 thus relate to amino acid substitutions that improve substrate properties.
Peptides of table 4 are represented by the following sequences SEQ ID NO: 22-31 and 33-46. Control peptide are represented by the following sequences SEQ ID NO: 11 as control L1 and SEQ ID NO: 32 as control L2. Unfortunately, a substantial number of designed peptides were too polar to be analyzed on our LC-MS system (indicated in Table 4 as n.t., not trapped on the column). We therefore also generated and tested these peptides containing two additional N-terminal F-residues to increase hydrophobicity. In this form peptides were trapped on the column and could be analyzed (see Table 5).
Based on the above results we designed 20 peptides containing multiple amino acids that improve substrate properties (see Table 7). The indicated peptides were synthesized and tested in order to identify the best substrate from this group. Here we used a test system with less enzyme (3 times less) compared to the experiments described above.
as §2

On to IEIITDRQSGKKR [SEQ ID NO: 7], for which, in the test with PAD2 [1], the “PAD2 conversion: Arg” value came out at 5%, the “PAD2 conversion: 1 Cit” value came to 70% and the “PAD2 conversion: 2 Cit” value was 25%. In the test with PAD4 [2], the “PAD4 conversion: Arg” value was 2%, the “PAD4 conversion: 1 Cit” value is listed as 88% and the “PAD4 conversion: 2 Cit” value turned out to be 10%.

For DSSEELRGGGKSD [SEQ ID NO: 9], in the test with PAD2 [1], the “PAD2 conversion: Arg” value was determined as 43% and the “PAD2 conversion: 1 Cit” value turned out to be 57%. For the same substance, in the test with PAD4 [2], the “PAD4 conversion: Arg” value is reported as 93% and the “PAD4 conversion: 1 Cit” value amounted to 7%.

For the substance IGSRGDRSGFGKF [SEQ ID NO: 6], in the test with PAD2 [1], the “PAD2 conversion: Arg” value turned out to be 1%, the “PAD2 conversion: 1 Cit” value is on record as 96% and the “PAD2 conversion: 2 Cit” value was 4%. For the same substance, in the test with PAD4 [2], the “PAD4 conversion: Arg” value was determined as 2%, the “PAD4 conversion: 1 Cit” value is reported as 69% and the “PAD4 conversion: 2 Cit” value came out at 29%.

DGYGGSRDSYSSS [SEQ ID NO: 3]: in the test with PAD2 [1], the “PAD2 conversion: Arg” value is listed as 54% and the “PAD2 conversion: 1 Cit” value worked out at 46%. Besides, in the test with PAD4 [2], the “PAD4 conversion: Arg” value is listed as 97% and the “PAD4 conversion: 1 Cit” value is on record as 3%.

Take GGYSGDRSGGGYG [SEQ ID NO: 2]: in the test with PAD2 [1], the “PAD2 conversion: Arg” value was determined as 33% and the “PAD2 conversion: 1 Cit” value was 67%. For the same substance, in the test with PAD4 [2], the “PAD4 conversion: Arg” value is recorded as 61% and the “PAD4 conversion: 1 Cit” value turned out to be 39%.

Take IEIMTDRGSGKKR [SEQ ID NO: 5]: in the test with PAD2 [1], the “PAD2 conversion: Arg” value stood at 6%, the “PAD2 conversion: 1 Cit” value worked out at 34% and the “PAD2 conversion: 2 Cit” value turned out to be 60%. For the same substance, in the test with PAD4 [2], the “PAD4 conversion: Arg” value is 37%, the “PAD4 conversion: 1 Cit” value was 60% and the “PAD4 conversion: 2 Cit” value is reported as 3%.

In the case of DDYSSSRDGYGGS [SEQ ID NO: 1], in the test with PAD2 [1], the “PAD2 conversion: Arg” value turned out to be 88% and the “PAD2 conversion: 1 Cit” value was 12%. Also, in the test with PAD4 [2], the “PAD4 conversion: Arg” value came to 97% and the “PAD4 conversion: 1 Cit” value was found to be 3%.

Take DSYRSWRDGYYSD [SEQ ID NO: 4]: in the test with PAD2 [1], the “PAD2 conversion: Arg” value came out at 16%, the “PAD2 conversion: 1 Cit” value is listed as 30% and the “PAD2 conversion: 2 Cit” value is given as 55%. For the same substance, in the test with PAD4 [2], the “PAD4 conversion: Arg” value is reported as 1%, the “PAD4 conversion: 1 Cit” value is 99% and the “PAD4 conversion: 2 Cit” value was determined as 0%.

As to DSEGTWRKGPEAD [SEQ ID NO: 8], in the test with PAD2 [1], the “PAD2 conversion: Arg” value worked out at 15% and the “PAD2 conversion: 1 Cit” value is reported as 85%. Moreover, in the test with PAD4 [2], the “PAD4 conversion: Arg” value worked out at 85% and the “PAD4 conversion: 1 Cit” value came to 15%.

As to “D-S-Q-W-A-F-R-H-A-L-F-S-D (DSQWAFRHALFSD) [Peptide 0735-37]”, the “Conversion (%)” value in the test with PAD2 [3] (Table 9, PAD2) came to 95%. The “Conversion by PAD2 (%)” value with PAD2 [3] was 95%. Besides, in the test with PAD4 [4], the “Conversion by PAD4 (%)” value is recorded as below 20%.

On to “D-S-K-K-F-H-R-G-F-L-Y-S-D (DSKKFHRGFLYSD; not fully specified (C-terminus); printed as D-S-K-K-F-H-R-G-F-L-Y-S-D) [Peptide 0708-33]”, for which, in the test with PAD2 [3], the “Conversion by PAD2 (%)” value stood at 100%. Besides, in the test with PAD4 [4], the Conversion stood at 60 and the “Conversion by PAD4 (%)” value stood at 73%.

Turning to “D-S-K-K-H-F-R-G-K-L-Y-S-D (DSKKHFRGKLYSD; not fully specified (C-terminus); printed as D-S-K-K-H-F-R-G-K-L-Y-S-D) [Peptide 0708-32]”, the “Conversion by PAD2 (%)” value with PAD2 [3] is reported as 96%. Besides, in the test with PAD4 [4], the Conversion is 24 and the “Conversion by PAD4 (%)” value turned out to be 22%.

DSRFYWRGGGKSD [SEQ ID NO: 10]: in the test with PAD2 [1], the “PAD2 conversion: Arg” value is given as 14%, the “PAD2 conversion: 1 Cit” value is recorded as 14% and the “PAD2 conversion: 2 Cit” value is 73%. In the test with PAD4 [2], the “PAD4 conversion: Arg” value was determined as 6%, the “PAD4 conversion: 1 Cit” value turned out to be 69% and the “PAD4 conversion: 2 Cit” value is listed as 25%.

Consider “D-S-K-K-F-K-R-D-F-L-F-S-D (DSKKFKRDFLFSD; not fully specified (C-terminus); printed as D-S-K-K-F-K-R-D-F-L-F-S-D) [Peptide 0708-26]”, for which the “Conversion by PAD2 (%)” value with PAD2 [3] was 97%. Also, in the test with PAD4 [4], the Conversion was found to be 23 and the “Conversion by PAD4 (%)” value was found to be 35%.
